Measured values reported in article doi:10.1101/2025.06.11.659033 (bioRxiv, 2025).
Like-named read-outs stand apart in the source and are kept apart here.

How the values were obtained:
SEC [1] = target: the molecule itself; assay: SEC
SEC [2] = target: the molecule itself; assay: SEC; remark: listed apart in the source

Protein	stoichiometry N (SEC [1])	stoichiometry N (SEC [2])
HDPpf-N4 (Δ37N, 3 C-terminal residues deleted) (domain or fragment, Plasmodium falciparum, UniProt Q8IL04 38-202, looked up) VYWCFEHKPVKRTIINLIYSHNELKIFSNLLNHPTVGSSLIHELSLDGPYTAFFPSNEAMQLINIESFNKLYNDENKLSEFVLNHVTKEYWLYRDLYGSSYQPWLMYNEKREAPEKLRNLLNNDLIVKIEGEFKHCNHSIYLNGSKIIRPNMKCHNGVVHIVDKP	2	
HDPpf-C10 (Δ44N, C-terminal 6His) (domain or fragment, Plasmodium falciparum, UniProt Q8IL04 45-205, looked up) KPVKRTIINLIYSHNELKIFSNLLNHPTVGSSLIHELSLDGPYTAFFPSNEAMQLINIESFNKLYNDENKLSEFVLNHVTKEYWLYRDLYGSSYQPWLMYNEKREAPEKLRNLLNNDLIVKIEGEFKHCNHSIYLNGSKIIRPNMKCHNGVVHIVDKPIIF		2
